Where only a bound is given, the exact number is not on record here.

Experiment [1] has as its target JR-CSF gp120 N276A (HIV-1) (UniProt P20871). Kind of experiment: cell-based or functional assay.
The target in experiment [2] is ΔRSC3. As to the kind of experiment: method not given.
Experiment [3] deals with JR-CSF gp120 D279A (HIV-1) (UniProt P20871). Kind of experiment: cell-based or functional assay.

The substance VRC01 (antibody) displayed a neutralization potency, JR-CSF pseudovirus in experiment [1] of 4 fold.

In experiment [2], VRC-PG04b (antibody) had a fold less binding than to RSC3 greater than 100 fold. VRC-PG-04 (antibody) returned a neutralization potency compared to wildtype, JRCSF pseudovirus entry in experiment [3] of less than 10%.
